# Laboratory results published in US20060218667A1.
# Target: porcine trypsin (porcine) (UniProt P00761)
# Assay: cell-based or functional assay
# UniProt P00761, sequence (P00761 9-231 limits assumed): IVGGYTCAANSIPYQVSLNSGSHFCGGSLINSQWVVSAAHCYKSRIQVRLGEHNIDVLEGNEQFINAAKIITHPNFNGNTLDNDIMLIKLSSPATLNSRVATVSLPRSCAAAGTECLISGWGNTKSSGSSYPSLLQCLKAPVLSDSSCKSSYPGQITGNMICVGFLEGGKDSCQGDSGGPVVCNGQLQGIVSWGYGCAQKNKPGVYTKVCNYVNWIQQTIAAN
row,KIU/mg Protein (specific activity) (KIU/mg protein),Substance
1,7150,r-Aprotinin-L (aprotinin variant with Met 52 replaced by leucine)
2,7220,r-Aprotinin-Q (aprotinin variant with Met 52 replaced by glutamine)
3,7160,r-Aprotinin-V (aprotinin variant with Met 52 replaced by valine)
